In patent US20110212853:

How the values were obtained:
[1] = system: recombinant human MCP-1(1-76) starting with an N-terminal glutamine
[2] = system: recombinant human MCP-1 N1pE (human MCP-1 with an N-terminal pyroglutamate)

## recombinant human Aminopeptidase P (R&D Systems)
[1]
  N-terminal cleavage, Maldi-TOF mass spectrometry: cleavage of human MCP-1(1-76) bearing an N-terminal glutaminyl residue by recombinant human Aminopeptidase P
[2]
  N-terminal cleavage, Maldi-TOF mass spectrometry: conferring resistance against N-terminal degradation by post-proline cleaving enzymes, e.g. DP4 and aminopeptidase P
